Measurements reported in article PMC9352680, “A comprehensive thermodynamic model for RNA binding by the Saccharomyces cerevisiae Pumilio protein PUF4”.

Experiments:
[1] = biological target: T1, PUF4 RNA-binding domain (Pumilio homology domain) (Saccharomyces cerevisiae, UniProt P25339 537-888); experiment: RNA-MaP; ddG 3.256; RNA-MaP: 20 mM Na-HEPES pH 7.4, 0.1% Tween-20, 5% glycerol, 0.1 mg/mL BSA, 2 mM DTT, low salt 0.75 mM MgCl2 + 30 mM KOAc (model data; high salt 2 mM MgCl2 + 100 mM KOAc), 25 C; settings: protein: recombinant; tags: C-terminal SNAP tag, Cy3B-labeled; N-terminal His tag removed with TEV; label: array RNA; single-stranded
T1 sequence: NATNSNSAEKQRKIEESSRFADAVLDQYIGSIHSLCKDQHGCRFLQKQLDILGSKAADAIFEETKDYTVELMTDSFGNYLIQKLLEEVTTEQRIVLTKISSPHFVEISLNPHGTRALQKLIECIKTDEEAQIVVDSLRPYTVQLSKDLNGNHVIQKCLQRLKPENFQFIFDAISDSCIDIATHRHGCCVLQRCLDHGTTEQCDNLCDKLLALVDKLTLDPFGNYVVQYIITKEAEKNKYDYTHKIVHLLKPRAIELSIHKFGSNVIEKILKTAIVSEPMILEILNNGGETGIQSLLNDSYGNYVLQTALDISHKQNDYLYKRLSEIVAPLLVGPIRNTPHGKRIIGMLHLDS

[2] = biological target: T1, PUF4 RNA-binding domain (Pumilio …); experiment: RNA-MaP; ddG 3.533; RNA-MaP: 20 mM Na-HEPES pH 7.4, 0.1% Tween-20, 5% glycerol, 0.1 mg/mL BSA, 2 mM DTT, low salt 0.75 mM MgCl2 + 30 mM KOAc (model data; high salt 2 mM MgCl2 + 100 mM KOAc), 25 C; settings: protein: recombinant; tags: C-terminal SNAP tag, Cy3B-labeled; N-terminal His tag removed with TEV; label: array RNA; single-stranded

UCUCUUAGUAUAUAUCUCUU (ssRNA) [S1a K3.1 T1A] was tested. Which Kd [1] did it give?
The Kd was -8.36 ± 0.617 kcal/mol (dG=RTlnKd).

How did the Kd [2] turn out when UCUCUUCGUAUAUAUCUCUU (ssRNA) [S1a K3.1 T1C] was run?
The Kd was -8.09 ± 0.575 kcal/mol (dG=RTlnKd).
